Measured values taken from paper PMC7379511.

Molecular target: feline interleukin-31 (fIL-31) displayed on the yeast surface (pETconNK_fIL-31) (feline)
Assay: flow cytometry on cells

Kd: 10.3 nM
percent decrease of the binding of biotinylated fIL31RA-1FNIII: 65%
percent decrease of the binding of biotinylated fOSMR-ECD (itself): 97%
Substance: soluble feline oncostatin M receptor extracellular domain, Fc fusion (fOSMR-ECD)
